Test results from patent publication US20210315964A1 (University of Pennsylvania, published 2021).

T1: recombinant human peroxiredoxin 6 (hPrdx6) (human, UniProt P30041 1-224, limits assumed)
T1 sequence (looked up): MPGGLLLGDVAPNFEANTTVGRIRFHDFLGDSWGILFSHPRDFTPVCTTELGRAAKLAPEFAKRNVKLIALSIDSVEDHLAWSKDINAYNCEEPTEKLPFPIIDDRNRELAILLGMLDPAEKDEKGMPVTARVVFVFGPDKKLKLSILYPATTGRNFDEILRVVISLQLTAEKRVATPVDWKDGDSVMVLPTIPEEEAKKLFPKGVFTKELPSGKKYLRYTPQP


Biological target: T1, recombinant human peroxiredoxin 6 …
Experiment: cell-based or functional assay

aiPLA2 activity of recombinant hPrdx6 with peptide (hPrdx6 only, no peptide: 93.4) [nmol/min/mg prot.] | Binder
97.1 | IKHQIL [SEQ ID NO: 14 IKHQIL (6)]
102 | DEELQTELYEIK [SEQ ID NO: 15 … (14)]
31.5 | QTELYEIKHQIL [SEQ ID NO: 11 QTELYEIKHQIL (12)]
28.6 | ELYEIKHQIL [SEQ ID NO: 12 ELYEIKHQIL (10)]
95.7 | DEELQTELYEI [SEQ ID NO: 16 … (12)]
94.4 | YEIKHQIL [SEQ ID NO: 13 YEIKHQIL (8)]
33.2 | ELQTELYEIKHQIL [SEQ ID NO: 10 ELQTELYEIKHQIL (14)]
45 | DEELQATLHDFRHQIL [PIP-1 (human, 16-mer) DEELQATLHDFRHQIL]
32 | DEELQTELYEIKHQIL [PIP-3 (rat, mouse, 16-mer) DEELQTELYEIKHQIL]

Biological target: T1, recombinant human peroxiredoxin 6 …
Experiment: cell-based or functional assay
Remark: another data set of the same source

aiPLA2 activity of human recombinant protein with peptide (hPrdx6 only: 92.0) [nmol/min/mg prot.] | Binder
29.9 | LHDFRHQIL [PIP-2 LHDFRHQIL]
32.3 | LYEIKHQIL [PIP-4 LYEIKHQIL]
31.5 | TLHDFRHQI [SEQ ID NO: 19 … (10)]
32 | DEELQTELYEIKHQIL [PIP-3 (rat, mouse, 16-mer) DEELQTELYEIKHQIL]

Biological target: T1, recombinant human peroxiredoxin 6 …
Experiment: cell-based or functional assay
Remark: another data set of the same source

Binder | aiPLA2 activity of human recombinant Prdx6 with peptide (no peptide, hPrdx6 only: 99.91) [nmol/min/mg prot.]
LHDFRHQIL [PIP-2 LHDFRHQIL] | 26.2
LYDIRHQIL [PIP-5 LYDIRHQIL] | 29.7
LHEFKHQIL [SN022 LHEFKHQIL] | 99.4
LKIEYHQIL [SN019 LKIEYHQIL] | 97.7
LRFDHHQIL [SN020 LRFDHHQIL] | 99

The next lines start with the values.

aiPLA2 activity of human recombinant Prdx6 with peptide (no peptide, hPrdx6 only: 99.91) [nmol/min/mg prot.] | Binder
102 | LHDFRHQLL [SN028 LHDFRHQLL]
98 | LFKLEHQIL [SN023 LFKLEHQIL]
101 | LHDFRPQIL [SN025 LHDFRPQIL]
102 | LHDFRDQIL [SN024 LHDFRDQIL]
97.3 | LHDFRHIIL [SN029 (row of SEQ ID NO: 31) LHDFRHIIL]
99 | LHDFRHNIL [SN026 LHDFRHNIL]
100 | LHDFRHQTL [SN029 (row of SEQ ID NO: 33) LHDFRHQTL]
